Results as given in PMC11103505, “AXL-specific single domain antibodies show diagnostic potential and anti-tumor activity in Acute Myeloid Leukemia” (Theranostics, 2024).

B1: recombinant mouse AXL protein (receptor, UniProt Q00993 19-445, looked up)
chain: AHKDTQTEAGSPFVGNPGNITGARGLTGTLRCELQVQGEPPEVVWLRDGQILELADNTQTQVPLGEDWQDEWKVVSQLRISALQLSDAGEYQCMVHLEGRTFVSQPGFVGLEGLPYFLEEPEDKAVPANTPFNLSCQAQGPPEPVTLLWLQDAVPLAPVTGHSSQHSLQTPGLNKTSSFSCEAHNAKGVTTSRTATITVLPQRPHHLHVVSRQPTELEVAWTPGLSGIYPLTHCNLQAVLSDDGVGIWLGKSDPPEDPLTLQVSVPPHQLRLEKLLPHTPYHIRISCSSSQGPSPWTHWLPVETTEGVPLGPPENVSAMRNGSQVLVRWQEPRVPLQGTLLGYRLAYRGQDTPEVLMDIGLTREVTLELRGDRPVANLTVSVTAYTSAGDGPWSLPVPLEPWRPGQGQPLHHLVSEPPPRAFSWPWW
notes: AXL receptor tyrosine kinase, mouse; recombinant protein R&D Systems #854-AX; also called mouse Axl antigen; recombinant mouse antigen; source: bought: R&D Systems (#854-AX)

Key:
[111In]In-DTPA-sdAb20-Fc = biological target: T1, [111In]In-DTPA-sdAb20-Fc (alpaca (Vicugna pacos)); assay: ELISA; radio-ELISA: recombinant mouse AXL coated on Lockwell C8 Maxisorp plates; serial dilution of [111In]In-DTPA-sdAb-Fc in PBS + 1% FBS; bound radioactivity by gamma counter; specific binding = total minus non-specific binding; conditions: both partners purified
T1 construct: as the VHH of Dm1; the His6 tag of sdAb20 was replaced with the mIgG2a-Fc region; about 80 kDa; also called [111In] anti-AXL sdAb20-Fc; 111In-labeled sdAb20-Fc; source: DTPA-conjugated and 111In-labelled, purified (SEC, NAP-5); not shown: Fc (mouse IgG2a), C-terminal, kept

[1] = biological target: B1; assay: SPR; Biacore-T200; recombinant AXL protein immobilised on CM5 chip by amine coupling (EDC/NHS); sdAbs injected at ten concentrations from 1.9 to 500 nM; 25°C; HBS (20 mM HEPES pH 7.4, 150 mM NaCl, 3.4 mM EDTA, 0.005% Tween 20); 10 µL/min; 1:1 binding model; conditions: both partners purified
[2] = biological target: T2, recombinant human AXL protein (Homo sapiens, UniProt P30530); assay: as above; conditions: both partners purified
T2 construct: AXL receptor tyrosine kinase, human; recombinant protein R&D Systems #154-AL; also called hAXL; AXL - Homo sapiens; source: bought: R&D Systems (#154-AL)

[3] = biological target: T3, recombinant human AXL protein (human, UniProt P30530); assay: SPR; competition assay for blocking of hAXL and hGAS6; which partner was immobilised is not shown; conditions: both partners purified
T3 construct: receptor tyrosine kinase AXL, human, recombinant protein from R&D Systems; also called hAXL; source: bought: R&D Systems

[4] = biological target: T4, AXL on AXL-overexpressing murine C1498 AML cells (Mus musculus, UniProt Q00993); assay: flow cytometry on cells; sdAb20 or sdAb20-Fc on AXL-expressing human and murine cancer cell lines, compared with the irrelevant control R3B23 or R3B23-Fc; read-out MFI; conditions: one partner purified
T4 construct: receptor tyrosine kinase AXL overexpressed in murine C1498 cells by lentiviral transduction; also called AXL^high C1498; source: C1498 cells, lentivirally transduced and positively selected, on cells

[5] = biological target: T5, recombinant mouse AXL protein (Mus musculus, UniProt Q00993); assay: SPR; Biacore T200; recombinant AXL immobilised on CM5 chip by amine coupling; seven serial dilutions of sdAb flowed over; 25 °C; HBS (20 mM HEPES pH 7.4, 150 mM NaCl, 3.4 mM EDTA, 0.005% Tween 20); 1:1 binding model; conditions: both partners purified
T5 construct: receptor tyrosine kinase AXL, mouse, recombinant protein from R&D Systems; also called recombinant mouse antigen; source: bought: R&D Systems

T2 sequence (P30530 26-451): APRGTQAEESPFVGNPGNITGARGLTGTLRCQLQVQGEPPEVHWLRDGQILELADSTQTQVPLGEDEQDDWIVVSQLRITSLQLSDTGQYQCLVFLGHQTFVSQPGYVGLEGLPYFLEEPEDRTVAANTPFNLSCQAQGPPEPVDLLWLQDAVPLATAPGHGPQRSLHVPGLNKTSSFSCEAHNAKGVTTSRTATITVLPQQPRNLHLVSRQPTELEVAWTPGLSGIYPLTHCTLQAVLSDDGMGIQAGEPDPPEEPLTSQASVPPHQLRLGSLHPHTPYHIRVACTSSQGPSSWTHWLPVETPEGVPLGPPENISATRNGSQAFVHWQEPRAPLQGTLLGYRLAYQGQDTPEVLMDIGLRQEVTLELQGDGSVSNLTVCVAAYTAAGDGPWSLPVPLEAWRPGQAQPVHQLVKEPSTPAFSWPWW
T3 sequence (P30530 26-451): as above

Binder	binding result [1]	binding result [2]	also measured
B1	–	–	Kd ([111In]In-DTPA-sdAb20-Fc): 11.9 nM
anti-AXL single domain antibody sdAb25 (VHH, source: E. coli WK6, periplasmic expression, purified (IMAC, SEC)) VHH: QVQLQESGGGLVQPGGSLRLSCVASGSIFSIYAMGWYRQAPGKQRELVAGISSGGSTNYADSVKGRFTISRDNAKNTVYLQMNSLKPEDTAVYYCNYDLVEAVTGEYDYWGQGTQVTVSS	binds	binds	–
anti-AXL single domain antibody sdAb12 (VHH, source: E. coli WK6, periplasmic expression, purified (IMAC, SEC)) VHH: QVQLQESGGGLVKPGGSLRLSCVASGSIFSIYAMGWYRQAPGKQRELVAGISSGGSTNYADSVKGRFTISRDNAKNTVYLQMNSLKPEDTAVYYCNYDLVEAVTGEYDYWGQGTQVTVSS	binds	binds	–
anti-AXL single domain antibody sdAb4 (VHH, source: E. coli WK6, periplasmic expression, purified (IMAC, SEC)) VHH: QVQLQESGGGLVQPGGSLRLSCVASGSIFSIYAMGWYRQAPGKQRELVAGISSGGSTNYADSVKGRFTISRDNAKNTVYLQMNSLKPEDTAVYYCNYDLVKAVTGEYDYWGQGTQVTVSS	binds	binds	–
anti-AXL single domain antibody sdAb19 (VHH, source: E. coli WK6, periplasmic expression, purified (IMAC, SEC)) VHH: QVQLQESGGGMVQPGGSLRLSCAASGFTFTSYDMTWLRQTPGKGPEWVSTISTGGLRTYYGNSVKGRFIISRDNTKNTLYLQMNSLKPEDTALYYCARGPFTVADPRRGQGTQVTVSS	binds	–	–
anti-AXL single domain antibody sdAb20 (VHH, re-cloned into pHEN6 (C-terminal His6 tag), monomeric format; source: E. coli WK6, periplasmic expression, purified (IMAC, SEC)) VHH: QVQLQESGGGLVRPGGSLRLSCAASGFTFTSYDMTWLRQTPGKGPEWVSTISTGGLRTYYGNSVKGRFIISRDNTKNTLYLQMNSLKPEDTALYYCARGPFTVADPRRGQGTQVTVSS	binds	–	–
anti-AXL single domain antibody sdAb20 (VHH, alpaca-derived; Re-cloned into pHEN6, which encodes the C-terminal His6 tag; also called lead compound; monovalent sdAb20; source: E. coli WK6, periplasmic expression, purified (IMAC, SEC); not shown: His6, C-terminal, kept) VHH: QVQLQESGGGLVRPGGSLRLSCAASGFTFTSYDMTWLRQTPGKGPEWVSTISTGGLRTYYGNSVKGRFIISRDNTKNTLYLQMNSLKPEDTALYYCARGPFTVADPRRGQGTQVTVSS	–	–	IC50 [3]: 119 nM; binding result [4]: binds; binding result [5]: binds
